Here are results for 2 substances from patent publication US20240059785A1.

Experiment [1] concerns the target human CD37 (Homo sapiens CD37) (Homo sapiens) (UniProt P11049). Kind of experiment: cell-based or functional assay.
For experiment [2], the target named is human CD20 (Homo sapiens CD20) (Homo sapiens) (UniProt P11836). Kind of experiment: cell-based or functional assay.
Chain of human CD20 (Homo sapiens CD20) (Homo sapiens) (P11836 whole entry): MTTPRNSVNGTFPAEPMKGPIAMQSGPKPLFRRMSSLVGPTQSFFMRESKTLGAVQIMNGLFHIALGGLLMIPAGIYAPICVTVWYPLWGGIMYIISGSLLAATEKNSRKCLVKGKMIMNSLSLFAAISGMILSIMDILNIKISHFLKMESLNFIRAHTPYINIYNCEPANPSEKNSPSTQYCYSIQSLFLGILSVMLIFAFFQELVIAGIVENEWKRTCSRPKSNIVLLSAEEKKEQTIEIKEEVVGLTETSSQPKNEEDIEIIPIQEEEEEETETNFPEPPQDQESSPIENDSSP

Chain of human CD37 (Homo sapiens CD37) (Homo sapiens) (P11049 whole entry): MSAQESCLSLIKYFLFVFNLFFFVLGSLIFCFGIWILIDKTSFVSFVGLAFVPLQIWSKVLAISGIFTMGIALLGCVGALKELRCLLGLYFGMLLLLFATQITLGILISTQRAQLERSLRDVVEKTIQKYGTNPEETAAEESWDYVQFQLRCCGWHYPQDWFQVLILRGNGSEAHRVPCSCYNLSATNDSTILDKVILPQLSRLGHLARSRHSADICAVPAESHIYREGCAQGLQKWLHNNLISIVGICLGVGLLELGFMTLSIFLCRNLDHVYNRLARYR

On to rituximab (antibody), for which, in experiment [1], the ADCC reporter assay (FcγRIII-transfected Jurkat NFAT luciferase effector cells), Mean RLU, CD37/CHO target cells, Effector:Target 4:1 came out at 20500 RLU and the ADCC reporter assay (FcγRIII-transfected Jurkat NFAT luciferase effector cells), Mean RLU, CD37/CHO target cells, Effector:Target 8:1 was determined as 35900 RLU.

In experiment [1], “human IgG1 isotype control antibody (an anti-dinitrophenyl (anti-DNP) antibody)” came in with an ADCC reporter assay (FcγRIII-transfected Jurkat NFAT luciferase effector cells), Mean RLU, CD37/CHO target cells, Effector:Target 4:1 of 20600 RLU and an ADCC reporter assay (FcγRIII-transfected Jurkat NFAT luciferase effector cells), Mean RLU, CD37/CHO target cells, Effector:Target 8:1 of 36200 RLU. In addition, in experiment [2], the ADCC reporter assay (FcγRIII-transfected Jurkat NFAT luciferase effector cells), Mean RLU, CD20/CHO target cells, Effector:Target 4:1 was determined as 20900 RLU; the ADCC reporter assay (FcγRIII-transfected Jurkat NFAT luciferase effector cells), Mean RLU, CD20/CHO target cells, Effector:Target 8:1 was found to be 36000 RLU; the ADCC reporter assay (FcγRIII-transfected Jurkat NFAT luciferase effector cells), Mean RLU, Raji target cells (express both hCD20 and hCD37), Effector:Target 4:1 was found to be 16600 RLU; the ADCC reporter assay (FcγRIII-transfected Jurkat NFAT luciferase effector cells), Mean RLU, Raji target cells (express both hCD20 and hCD37), Effector:Target 8:1 was found to be 31500 RLU.
